Laboratory results as given in patent publication US20030207290A1.
Blank lines part the entries; values can stand above or below the binder they belong to. Where no end group is shown, it is not given here.

Tests used:
[1] = biological target: T1, EGFR-pY1068 phosphopeptide, LPVPE(p)…; assay: ECL 7-spot plate screen, peptide-BSA spot, biotinylated TnT protein, Ru-streptavidin; signal normalized in two steps
T1 sequence (peptide, phosphotyrosine at (p)Y (residue 6 of the printed peptide; EGFR Tyr1068)): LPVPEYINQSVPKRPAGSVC

[2] = biological target: Grb2 (EST clone IMAGE 4398016), in vitro translated, biotin-labelled (UniProt P62993); assay: competition: immobilized Grb2, +EGFR, un-phosphorylated peptide in solution; bound EGFR detected by its kinase activity on pEY
[3] = biological target: Pool C of peptide:BSA conjugates (EGFR-pTyr1068, IkBa-24ppC, Smad3C); assay: ECL 4-spot binding assay with pooled peptide-BSA conjugates, biotinylated TnT protein, Sulfo-TAG streptavidin
[4] = biological target: Pool A of peptide:BSA conjugates (EGFR-pTyr1148, IkBa-24ppC, Myc-p58Tp62S); assay: as above
[5] = biological target: Pool B of peptide:BSA conjugates (EGFR-pTyr992, EGFR-pTyr1148, Smad3C); assay: as above
[6] = biological target: Pool D of peptide:BSA conjugates (EGFR-pTyr992, EGFR-pTyr1068, Myc-p58Tp62S); assay: as above
BSA (control coating) = BSA (control coating) (UniProt P02769); assay: ECL plate binding assay: BSA control on electrode, biotinylated TnT protein, Sulfo-TAG streptavidin
BSA (control coating), sequence (P02769 25-607 limits assumed): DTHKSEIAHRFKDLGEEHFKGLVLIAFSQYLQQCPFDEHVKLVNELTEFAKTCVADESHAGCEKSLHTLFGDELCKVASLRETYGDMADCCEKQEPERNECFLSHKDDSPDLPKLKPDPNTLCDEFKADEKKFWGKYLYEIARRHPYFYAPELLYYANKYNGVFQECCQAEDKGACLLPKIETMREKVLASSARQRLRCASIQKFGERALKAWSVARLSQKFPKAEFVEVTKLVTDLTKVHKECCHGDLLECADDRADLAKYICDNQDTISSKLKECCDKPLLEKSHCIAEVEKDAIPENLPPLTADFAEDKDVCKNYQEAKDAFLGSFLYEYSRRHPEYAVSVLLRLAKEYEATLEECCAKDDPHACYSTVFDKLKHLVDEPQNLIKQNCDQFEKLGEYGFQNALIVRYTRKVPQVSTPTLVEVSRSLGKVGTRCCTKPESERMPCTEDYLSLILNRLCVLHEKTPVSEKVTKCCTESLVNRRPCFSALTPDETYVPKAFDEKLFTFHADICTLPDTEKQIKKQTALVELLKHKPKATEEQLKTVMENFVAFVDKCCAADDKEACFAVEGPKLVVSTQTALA

B1: BMX non-receptor tyrosine kinase (EST clone IMAGE 3919253), in vitro translated, biotin-labelled (enzyme, UniProt P51813 1-675, looked up)
chain: MDTKSILEELLLKRSQQKKKMSPNNYKERLFVLTKTNLSYYEYDKMKRGSRKGSIEIKKIRCVEKVNLEEQTPVERQYPFQIVYKDGLLYVYASNEESRSQWLKALQKEIRGNPHLLVKYHSGFFVDGKFLCCQQSCKAAPGCTLWEAYANLHTAVNEEKHRVPTFPDRVLKIPRAVPVLKMDAPSSSTTLAQYDNESKKNYGSQPPSSSTSLAQYDSNSKKIYGSQPNFNMQYIPREDFPDWWQVRKLKSSSSSEDVASSNQKERNVNHTTSKISWEFPESSSSEEEENLDDYDWFAGNISRSQSEQLLRQKGKEGAFMVRNSSQVGMYTVSLFSKAVNDKKGTVKHYHVHTNAENKLYLAENYCFDSIPKLIHYHQHNSAGMITRLRHPVSTKANKVPDSVSLGNGIWELKREEITLLKELGSGQFGVVQLGKWKGQYDVAVKMIKEGSMSEDEFFQEAQTMMKLSHPKLVKFYGVCSKEYPIYIVTEYISNGCLLNYLRSHGKGLEPSQLLEMCYDVCEGMAFLESHQFIHRDLAARNCLVDRDLCVKVSDFGMTRYVLDDQYVSSVGTKFPVKWSAPEVFHYFKYSSKSDVWAFGILMWEVFSLGKQPYDLYDNSQVVLKVSQGHRLYRPHLASDTIYQIMYSCWHELPEKRPTFQQLLSSIEPLREKDKH
modifications: biotin on some lysine residues (incorporated at random from biotin-Lys-tRNA)
normalized ECL signal [1]: 3

B2: Phospholipase C gamma 1 (PLCγ) (EST clone IMAGE 4419252), in vitro translated, biotin-labelled (enzyme, UniProt P19174 1-1290, looked up)
chain: MAGAASPCANGCGPGAPSDAEVLHLCRSLEVGTVMTLFYSKKSQRPERKTFQVKLETRQITWSRGADKIEGAIDIREIKEIRPGKTSRDFDRYQEDPAFRPDQSHCFVILYGMEFRLKTLSLQATSEDEVNMWIKGLTWLMEDTLQAPTPLQIERWLRKQFYSVDRNREDRISAKDLKNMLSQVNYRVPNMRFLRERLTDLEQRSGDITYGQFAQLYRSLMYSAQKTMDLPFLEASTLRAGERPELCRVSLPEFQQFLLDYQGELWAVDRLQVQEFMLSFLRDPLREIEEPYFFLDEFVTFLFSKENSVWNSQLDAVCPDTMNNPLSHYWISSSHNTYLTGDQFSSESSLEAYARCLRMGCRCIELDCWDGPDGMPVIYHGHTLTTKIKFSDVLHTIKEHAFVASEYPVILSIEDHCSIAQQRNMAQYFKKVLGDTLLTKPVEISADGLPSPNQLKRKILIKHKKLAEGSAYEEVPTSMMYSENDISNSIKNGILYLEDPVNHEWYPHYFVLTSSKIYYSEETSSDQGNEDEEEPKEVSSSTELHSNEKWFHGKLGAGRDGRHIAERLLTEYCIETGAPDGSFLVRESETFVGDYTLSFWRNGKVQHCRIHSRQDAGTPKFFLTDNLVFDSLYDLITHYQQVPLRCNEFEMRLSEPVPQTNAHESKEWYHASLTRAQAEHMLMRVPRDGAFLVRKRNEPNSYAISFRAEGKIKHCRVQQEGQTVMLGNSEFDSLVDLISYYEKHPLYRKMKLRYPINEEALEKIGTAEPDYGALYEGRNPGFYVEANPMPTFKCAVKALFDYKAQREDELTFIKSAIIQNVEKQEGGWWRGDYGGKKQLWFPSNYVEEMVNPVALEPEREHLDENSPLGDLLRGVLDVPACQIAIRPEGKNNRLFVFSISMASVAHWSLDVAADSQEELQDWVKKIREVAQTADARLTEGKIMERRKKIALELSELVVYCRPVPFDEEKIGTERACYRDMSSFPETKAEKYVNKAKGKKFLQYNRLQLSRIYPKGQRLDSSNYDPLPMWICGSQLVALNFQTPDKPMQMNQALFMTGRHCGYVLQPSTMRDEAFDPFDKSSLRGLEPCAISIEVLGARHLPKNGRGIVCPFVEIEVAGAEYDSTKQKTEFVVDNGLNPVWPAKPFHFQISNPEFAFLRFVVYEEDMFSDQNFLAQATFPVKGLKTGYRAVPLKNNYSEDLELASLLIKIDIFPAKENGDLSPFSGTSLRERGSDASGQLFHGRAREGSFESRYQQPFEDFRISQEHLADHFDSRERRAPRRTRVNGDNRL
modifications: biotin on some lysine residues (incorporated at random from biotin-Lys-tRNA)
ECL signal [3]: 1550 ECL signal | ECL signal [4]: 239 ECL signal | ECL signal [5]: 2780 ECL signal | ECL signal [6]: 3390 ECL signal | Average ECL signal (BSA (control coating)): 342 ECL signal

Further lines, results first:

ECL signal of EGFR bound to Grb2 in presence of the peptide [2]: 34100 ECL signal
Binder: LPVPEYINQSVPKRPAGSVC (not fully specified) [un-phosphorylated EGFR 1063-1081 peptide (Peptide, SEQ ID No. 8)]

ECL signal [3]: 24 ECL signal | ECL signal [4]: 260 ECL signal | ECL signal [5]: 318 ECL signal | ECL signal [6]: 26 ECL signal | Average ECL signal (BSA (control coating)): 342 ECL signal
B3: Shc1 (EST clone IMAGE 3907115), in vitro translated, biotin-labelled (protein, UniProt P29353-2 1-473, looked up)
chain: MNKLSGGGGRRTRVEGGQLGGEEWTRHGSFVNKPTRGWLHPNDKVMGPGVSYLVRYMGCVEVLQSMRALDFNTRTQVTREAISLVCEAVPGAKGATRRRKPCSRPLSSILGRSNLKFAGMPITLTVSTSSLNLMAADCKQIIANHHMQSISFASGGDPDTAEYVAYVAKDPVNQRACHILECPEGLAQDVISTIGQAFELRFKQYLRNPPKLVTPHDRMAGFDGSAWDEEEEEPPDHQYYNDFPGKEPPLGGVVDMRLREGAAPGAARPTAPNAQTPSHLGATLPVGQPVGGDPEVRKQMPPPPPCPGRELFDDPSYVNVQNLDKARQAVGGAGPPNPAINGSAPRDLFDMKPFEDALRVPPPPQSVSMAEQLRGEPWFHGKLSRREAEALLQLNGDFLVRESTTTPGQYVLTGLQSGQPKHLLLVDPEGVVRTKDHRFESVSHLISYHMDNHLPIISAGSELCLQQPVERKL
modifications: biotin on some lysine residues (incorporated at random from biotin-Lys-tRNA)
